Results on 72 sequences are retold here after the supplement of paper PMC10567573.

The data set is described as follows: protein stability index of a GFP-peptide fusion (GPS, HEK-293T) (PSI 1-6); higher = more stable.
The mark [1] stands for this setting: treatment: DMSO, c terminus: a fixed tail appended.
The mark [2] stands for this setting: treatment: MLN4924 1 uM, 8 h, c terminus: a fixed tail appended.

± gives the standard deviation.
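Note: 24-mer peptide tiles fused after GFP, lentivirally expressed, FACS-sorted into six equal bins by GFP/DsRed ratio, decoded by Illumina sequencing, PSI is the read-weighted mean bin number.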

As for LDVGATEGQDLQHISNQKMPTGPP [DRICH1], the protein stability index by setting is: under setting [1], 5.18 ± 0.094; under setting [2], 5.21 ± 0.091.

As for LDYSFGDHTSEAVRNLFGLDPSSG [PCDHGC5], the protein stability index reads like this: under setting [1], 3.55 ± 0.13; under setting [2], 3.54 ± 0.38.

As for LEAIRKQDLVELYLTNCEKLSAKS [ZER1], the protein stability index came to 3.06 ± 0.21 under setting [1] and 3.11 ± 0.36 under setting [2].

For the sequence LEDAAGGDSASEEKSGSAEPFVLP [FBXO34], the protein stability index amounted to 5.46 ± 0.37 under setting [1] and 5.34 ± 0.33 under setting [2].

With LEEEIERNKESPVFAPVYFPEELH [HMOX1], the protein stability index amounted to 5.32 ± 0.43 under setting [1] and 5.09 ± 0.57 under setting [2].

As to LEEQGATWRHRETLIIAVLVSASI [FATE1], the protein stability index turned out to be 2.77 ± 0.49 under setting [1] and 2.7 ± 0.44 under setting [2].

On to LEGYRDNAYKDLAWKHGNIHLSAP [PCMTD1], for which the protein stability index under setting [1] is 2.99 ± 0.35 and the protein stability index under setting [2] is 2.94 ± 0.21.

Take LEPLSLPESPGGTTTLEGSPSVPC [ZNF277]: the protein stability index was found to be 5.22 ± 0.16 under setting [1] and 5.3 ± 0.14 under setting [2].

Take LEQQNQVLETKWELLQQLDLNNCK [KRT71]: the protein stability index was 4.21 ± 0.21 under setting [1] and 4.4 ± 0.27 under setting [2].

For the sequence LESEDWEEDNWDPELMEHTEAESE [TEX19], the protein stability index was 5.59 ± 0.29 under setting [1] and 5.53 ± 0.32 under setting [2].

The sequence LESRFQSKSGYLRYSCESRIRSYL [DFFB] displayed a protein stability index under setting [1] of 2.46 ± 0.12 and a protein stability index under setting [2] of 2.39 ± 0.24.

On to LETEIEALKEELLFMKKNHEEEVK [KRT18], for which the protein stability index was 5.1 ± 0.12 under setting [1] and 4.98 ± 0.098 under setting [2].

The sequence LEVDHIRTIYHMFIALLILFILST [SOAT1] displayed a protein stability index under setting [1] of 2.58 ± 0.39 and a protein stability index under setting [2] of 2.43 ± 0.41.

With LFCAPGSWEWNELDHIMEIILGS [SERTAD3], the protein stability index runs as follows: (treatment: DMSO, c terminus: native) 3.56 ± 0.17; (treatment: MLN4924 1 uM, 8 h, c terminus: native) 2.45 ± 0.4.

LFCEVSVVQDSVNISGHTNTNTLK [SPOPL]: the protein stability index under setting [1] came to 2.76 ± 0.4 and the protein stability index under setting [2] turned out to be 2.84 ± 0.67.

On to LFSKWFSESGKLVTKMFQKIQDLI [TRIP13], for which the protein stability index was 2.98 ± 0.52 under setting [1] and 2.49 ± 0.39 under setting [2].

Turning to LGISPSTCSFNPGVIVANMTEWKH [GLT8D2], the protein stability index came to 2.59 ± 0.3 under setting [1] and 2.59 ± 0.23 under setting [2].

On to LGSAGAQYEKYSFRGFPPEDLMPL [P3H4], for which the protein stability index reads like this: under setting [1], 2.87 ± 0.52; under setting [2], 2.86 ± 0.17.

Sequence LGWAQPCDVWSIGCILFEYYRGFT [CLK3] registered a protein stability index under setting [1] of 3.31 ± 0.71 and a protein stability index under setting [2] of 2.93 ± 1.5.

As for LHHVKTMWYPEIKHFCPRAPVILV [RHOBTB2], the protein stability index is, setting by setting: under setting [1], 2.65 ± 0.58; under setting [2], 2.58 ± 0.87.

With LIGFCMFVLSLVKKHYRLQFYMFG [CDS2], the protein stability index turned out to be 2.33 ± 0.61 under setting [1] and 2.47 ± 0.85 under setting [2].

As to LINKMLTINPSKRITAAEALKHPW [CAMK2A], the protein stability index under setting [1] stood at 2.16 ± 0.11 and the protein stability index under setting [2] came out at 2.17 ± 0.18.

With LIQPQDQSCWAFLPDLCLCRVFWW [FBXO39], the protein stability index by setting is: under setting [1], 2.88 ± 0.78; under setting [2], 2.9 ± 0.55.

For LKFDMKYMNFRVKACNKAVAGEFS [FSD1], the protein stability index runs as follows: under setting [1], 2.34 ± 0.26; under setting [2], 2.17 ± 0.2.

Consider LKILKPSIPLERIHFDSYITCVSG [FBXO33], for which the protein stability index runs as follows: under setting [1], 2.22 ± 0.41; under setting [2], 2.23 ± 0.42.

On to LKPESSQQPGQDALAVKAGHGYDS [ZBED1], for which the protein stability index is, setting by setting: under setting [1], 5.12 ± 0.33; under setting [2], 5.22 ± 0.32.

Consider LKQAKELDRERAAANEQLTRAILR [CHCHD3], for which the protein stability index came out at 3.56 ± 0.11 under setting [1] and 3.81 ± 0.2 under setting [2].

Regarding LLCLRAVTHREGAPPLPGAESFPG [PLEKHN1], the protein stability index runs as follows: under setting [1], 3.08 ± 0.23; under setting [2], 3.11 ± 0.067.

As to LLDADWSINAGSWMWLSCSSFFQQ [CRY1], the protein stability index reads like this: under setting [1], 2.67 ± 1.1; under setting [2], 2.57 ± 0.22.

In the case of LLEPEVADGGGAPPQGGCGGGGCD [KCNA3], the protein stability index runs as follows: under setting [1], 5.31 ± 0.22; under setting [2], 5.35 ± 0.11.

On to LLESLNQQRLQGQLCDVSIRVQGR [ZBTB22], for which the protein stability index was determined as 2.59 ± 0.21 under setting [1] and 2.67 ± 0.21 under setting [2].

Take LLSFKRGSALEEKENKILVKETGY [TNFSF13B]: the protein stability index worked out at 3.45 ± 0.38 under setting [1] and 3.31 ± 0.37 under setting [2].

On to LLSFLLLMDYIGINLATMNSCINP [EDNRA], for which the protein stability index was determined as 2.58 ± 0.73 under setting [1] and 4.18 ± 0.46 under setting [2].

For LLSQKKTISFLGCAIQMFSFLFLG [OR10K2], the protein stability index by setting is: under setting [1], 2.5 ± 0.69; under setting [2], 2.41 ± 0.25.

With LLTHRCLRDEHRCASKYGRDWERY [DHCR7], the protein stability index under setting [1] was 2.26 ± 0.27 and the protein stability index under setting [2] stood at 2.38 ± 0.11.

LLWAKFTNSDTPTSFNHMDSDKLS [TOR1AIP2] gave a protein stability index under setting [1] of 2.45 ± 0.3 and a protein stability index under setting [2] of 2.54 ± 0.35.

Regarding LNPGFQDATLSLKQTILDKEEKQR [TTC32], the protein stability index under setting [1] was determined as 4.94 ± 0.15 and the protein stability index under setting [2] turned out to be 4.98 ± 0.17.

Take LNRATQSIERSHRIATETDQIGSE [VTI1B]: the protein stability index is 5.44 ± 0.32 under setting [1] and 5.34 ± 0.11 under setting [2].

For LPAAEFHGLWDSLVYDVEVKSHLL [TRIP13], the protein stability index by setting is: under setting [1], 2.43 ± 0.22; under setting [2], 2.42 ± 0.2.

Consider LPGPAFESYESMELACPAERSGHV [KLHDC2], for which the protein stability index reads like this: under setting [1], 4.41 ± 0.17; under setting [2], 4.45 ± 0.33.

As for LPQVAEEISGPLTSANKITLVSSG [FLOT1], the protein stability index stood at 3.78 ± 0.23 under setting [1] and 4.23 ± 0.21 under setting [2].

Turning to LPRSEDDDCDDDDDDAQILPSPVQ [DRICH1], the protein stability index runs as follows: under setting [1], 5.5 ± 0.11; under setting [2], 5.53 ± 0.27.

Consider LPSPVQACSEDSLFLRCSLRHKDE [DRICH1], for which the protein stability index stood at 4.31 ± 0.15 under setting [1] and 4.48 ± 0.2 under setting [2].

In turn, LPVNSPMNKGDTEVMKCIVEVISD [CHGA] displayed a protein stability index under setting [1] of 3.22 ± 0.2 and a protein stability index under setting [2] of 3.27 ± 0.19.

For LPVPPTPGLLSLATTSASDSLKPE [TFE3], the protein stability index by setting is: under setting [1], 4.87 ± 0.26; under setting [2], 5.04 ± 0.29.

In the case of LPVRPQTNALIGGPMPMSMPNVMT [CLINT1], the protein stability index worked out at 3.33 ± 0.11 under setting [1] and 3.38 ± 0.18 under setting [2].

Take LQELLTHDTKDQSPSRAPGLRQRA [HMOX1]: the protein stability index amounted to 4.33 ± 0.26 under setting [1] and 4.62 ± 0.33 under setting [2].

Consider LQIASDSHQYDRIYCGAGVQKDHE [PCMTD1], for which the protein stability index turned out to be 4.24 ± 0.25 under setting [1] and 4.25 ± 0.28 under setting [2].

For LQLPQLSDLGLLRLCTWLLALSPD [FANCE], the protein stability index came out at 2.89 ± 0.6 under setting [1] and 2.37 ± 0.3 under setting [2].

Turning to LQNFLLHGTKNVTNSSSLRLPRQN [WSB1], the protein stability index turned out to be 2.89 ± 0.16 under setting [1] and 3 ± 0.23 under setting [2].

LQNTYMGYLDYRKKAIKDLGISPS [GLT8D2]: the protein stability index came to 2.64 ± 0.24 under setting [1] and 2.91 ± 0.16 under setting [2].

In the case of LQRLDFSVRGYMMSKQRERQLRRR [RETREG3], the protein stability index is, setting by setting: under setting [1], 3.88 ± 0.14; under setting [2], 3.92 ± 0.28.

LRETKRKYESVLQLGRALTAHLYS [ARFIP2]: the protein stability index under setting [1] amounted to 2.3 ± 0.5 and the protein stability index under setting [2] came to 2.15 ± 0.32.

Regarding LRHKDEEEEDDDDIHITARIESDL [DRICH1], the protein stability index runs as follows: under setting [1], 5.41 ± 0.12; under setting [2], 5.37 ± 0.18.

For LRKSIFSESRKPTVSIMEPGETRR [TRIM29], the protein stability index under setting [1] worked out at 3.66 ± 0.32 and the protein stability index under setting [2] was 3.93 ± 0.58.

On to LRNLSDAATKQEGMEGLLGTLVQL [CTNNB1], for which the protein stability index is, setting by setting: under setting [1], 3.51 ± 0.16; under setting [2], 3.03 ± 0.65.

As for LRQAQQNMDPKAAEEEEEEEEEVD [CCND1], the protein stability index by setting is: under setting [1], 5.64 ± 0.35; under setting [2], 5.56 ± 0.33.

Consider LRTLRDFPAEERARVLDRRGCSRV [ANKRD9], for which the protein stability index was found to be 3.91 ± 0.32 under setting [1] and 4.06 ± 0.29 under setting [2].

Take LSINRYERKKNLTLALEALVQLRG [ALG2]: the protein stability index is 2.25 ± 0.36 under setting [1] and 2.09 ± 0.2 under setting [2].

With LSQRVMCNDLFKVNPFQLQQFRAD [TIAF1], the protein stability index reads like this: under setting [1], 2.48 ± 0.18; under setting [2], 2.5 ± 0.32.

As for LSTSSSPSGTPTNLRRHVPDLESG [DLC1], the protein stability index is 4.65 ± 0.26 under setting [1] and 4.7 ± 0.21 under setting [2].

Regarding LSVCPLEGSREHAFQITGVWDASR [PLEKHN1], the protein stability index reads like this: under setting [1], 2.88 ± 0.24; under setting [2], 3.38 ± 0.37.

LTADTKEVTASQEARGLRLSDLED [IRX6] had a protein stability index under setting [1] of 5.37 ± 0.32 and a protein stability index under setting [2] of 5.35 ± 0.12.

LTGLFKGDKCHSLVGKPKIFIIQA [CASP6]: the protein stability index by setting is: under setting [1], 2.83 ± 0.46; under setting [2], 2.93 ± 0.65.

Take LTRMTRVSEFLKVAEQVGIDKGDI [SNAP91]: the protein stability index by setting is: under setting [1], 3.39 ± 0.23; under setting [2], 3.48 ± 0.23.

Sequence LTSLHHFMHSRNLYILGNFMQLKC [PNLIPRP1] registered a protein stability index under setting [1] of 2.89 ± 0.32 and a protein stability index under setting [2] of 2.5 ± 0.35.

LTSLLACLPAGPRVYFLKGGYETF [DUSP5]: the protein stability index runs as follows: under setting [1], 2.34 ± 0.42; under setting [2], 2.36 ± 0.47.

In the case of LTTCTSNVAASNAKLALFYDWLFF [INTS3], the protein stability index came to 2.33 ± 0.45 under setting [1] and 2.66 ± 0.54 under setting [2].

Take LVALKCTCCYFKFIIEYYNIRPAD [FBXO34]: the protein stability index came to 2.69 ± 0.38 under setting [1] and 2.81 ± 0.9 under setting [2].

For LVELSAENEKLHQRVEQLTRDLAG [CEBPD], the protein stability index by setting is: under setting [1], 3.64 ± 0.61; under setting [2], 3.73 ± 0.28.

Take LVLAAVVAWCYYSVSLRKAERLRA [MYORG]: the protein stability index turned out to be 3.27 ± 0.64 under setting [1] and 3.31 ± 0.33 under setting [2].

Take LWKMKPRRNLEEDDYLHKDTGETS [STEAP1]: the protein stability index runs as follows: under setting [1], 4.07 ± 0.3; under setting [2], 4.08 ± 0.42.
